According to PMC3210380:
Changes are numbered by the printed parent chain.

T1: Aptx full-length WT (Schizosaccharomyces pombe, UniProt O74859 1-232)
T1 sequence: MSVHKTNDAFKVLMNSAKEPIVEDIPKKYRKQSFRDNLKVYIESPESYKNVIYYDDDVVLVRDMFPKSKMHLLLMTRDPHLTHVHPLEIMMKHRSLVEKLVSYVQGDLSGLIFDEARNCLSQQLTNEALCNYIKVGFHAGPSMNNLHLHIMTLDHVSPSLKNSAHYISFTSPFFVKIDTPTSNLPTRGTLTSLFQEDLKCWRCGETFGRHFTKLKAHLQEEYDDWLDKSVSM

T2: Aptx F65A (Schizosaccharomyces pombe, UniProt O74859 1-232, F65A)
T2 sequence: T1 sequence with F65A

T3: Aptxcat (HIT-Znf catalytic core) (Schizosaccharomyces pombe, UniProt O74859 30-232)
T3 sequence: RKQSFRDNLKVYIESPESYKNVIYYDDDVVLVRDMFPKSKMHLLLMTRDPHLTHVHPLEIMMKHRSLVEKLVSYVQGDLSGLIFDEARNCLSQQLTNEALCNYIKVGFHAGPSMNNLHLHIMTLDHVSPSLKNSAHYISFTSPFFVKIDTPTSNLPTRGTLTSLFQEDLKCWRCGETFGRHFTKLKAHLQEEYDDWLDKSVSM

B1: 39-mer ssDNA (ssDNA)
DNA: CAGAGTCATAATATGCAGGTGCAGGTTATTCATGCTCGG
B2: SSB 39-mer (1-nt gap, 3'- and 5'-phosphates) (dsDNA)
DNA 1: CCGAGCATGAATAACCTGCACCTGCATATTATGACTCTG
DNA 2: CAGAGTCATAATATGCAGG
DNA 3: GCAGGTTATTCATGCTCGG
modifications: 3'-phosphate on S5; 5'-phosphate on S6
B3: 39-mer dsDNA (dsDNA)
DNA 1: B1 DNA
DNA 2: B2 DNA 1
B4: Crystallized duplex, strands A and C (dsDNA)
DNA 1: CCCTG
DNA 2: TATCGGAATCAGGG
modifications: 5'-OH and 3'-OH on both strands

Experiments:
Aptx full-length WT = biological target: T1, Aptx full-length WT; assay: fluorescence polarization
Aptx F65A = biological target: T2, Aptx F65A; assay: fluorescence polarization
[1] = biological target: T3, Aptxcat (HIT-Znf catalytic core); assay: X-ray crystallography

| Binder | Kd (Aptx full-length WT) [nM] | Kd (Aptx F65A) [nM] | binding result [1] |
| --- | --- | --- | --- |
| B1 | 330 |  |  |
| B2 | 80 | 250 |  |
| B3 | 190 |  |  |
| B4 |  |  | binds |
